Each block holds one binder with its values, some of them ahead of it. Primed or numbered codes have the meaning given here. Ends that are not written are not given here. FITC′ = fluorescein isothiocyanate
Key:
[1] = target: T1, Toll-like receptor 4 (TLR4), human (human, UniProt O00206 24-839); experiment: conclusion of Experimental Example 8 (SPR on TIR-domain peptides, data not given; confocal microscopy)
T1 construct: whole, on cells; also called hTLR4; human TLR4

[2] = target: T1, Toll-like receptor 4 (TLR4), human; experiment: confocal laser scanning microscopy, THP1 cells treated with TIP1-FITC with or without LPS
Protocol: (§1) RAW 264.7 cells and THP1 cells were dispensed into 24-well plates to a cell number of 2×10⁵ cells/well, and then grown in an incubator overnight. Subsequently, combined treatment with TIP1 and LPS was performed. After 24 hours, the RAW 264.7 cells and the THP1 cells were fixed with 3.7% formaldehyde (Sigma-Aldrich Co. LLC) for 15 minutes, and immersed into 0.2% Triton X-100 (AMRESCO, Solon, Ohio, USA) for 15 minutes. Then, washing with PBS was performed three times and blocking with 2% BSA solution was performed. […] Subsequently, the cells were stained at room temperature for 15 minutes using 5 μM Hoechst 33258 (Sigma-Aldrich Co.), and the number of the fluorescently stained cells was counted using a confocal laser scanning microscope (LSM-700, Carl Zeiss MicroImaging GmbH). The images were analyzed using Zen 2009 software.
(§2) In addition, in order to identify binding of TIP1 to TLR4, TIP1-FITC was prepared by binding fluorescein isothiocyanate (FITC) to the N-terminus of TIP1. The THP1 cells in Example 1-2 were subjected to treatment with TIP1 (TIP1-FITC) or to combined treatment with LPS and TIP1, and then the number of fluorescently stained cells were counted using immunofluorescent staining and a confocal microscope according to the method described in Examples 2-4, thereby analyzing interactions between the proteins. […]

[3] = target: T2, MyD88 (myeloid differentiation 88), in THP1 human monocytes (human, UniProt Q99836 1-296); experiment: confocal immunofluorescence, THP1 cells treated with TIP1-FITC and LPS
T2 construct: whole, on cells; Endogenous intracellular protein seen by immunofluorescence; Species follows from the THP1 human cells
Protocol: as §1, §2

T1 sequence (O00206 24-839): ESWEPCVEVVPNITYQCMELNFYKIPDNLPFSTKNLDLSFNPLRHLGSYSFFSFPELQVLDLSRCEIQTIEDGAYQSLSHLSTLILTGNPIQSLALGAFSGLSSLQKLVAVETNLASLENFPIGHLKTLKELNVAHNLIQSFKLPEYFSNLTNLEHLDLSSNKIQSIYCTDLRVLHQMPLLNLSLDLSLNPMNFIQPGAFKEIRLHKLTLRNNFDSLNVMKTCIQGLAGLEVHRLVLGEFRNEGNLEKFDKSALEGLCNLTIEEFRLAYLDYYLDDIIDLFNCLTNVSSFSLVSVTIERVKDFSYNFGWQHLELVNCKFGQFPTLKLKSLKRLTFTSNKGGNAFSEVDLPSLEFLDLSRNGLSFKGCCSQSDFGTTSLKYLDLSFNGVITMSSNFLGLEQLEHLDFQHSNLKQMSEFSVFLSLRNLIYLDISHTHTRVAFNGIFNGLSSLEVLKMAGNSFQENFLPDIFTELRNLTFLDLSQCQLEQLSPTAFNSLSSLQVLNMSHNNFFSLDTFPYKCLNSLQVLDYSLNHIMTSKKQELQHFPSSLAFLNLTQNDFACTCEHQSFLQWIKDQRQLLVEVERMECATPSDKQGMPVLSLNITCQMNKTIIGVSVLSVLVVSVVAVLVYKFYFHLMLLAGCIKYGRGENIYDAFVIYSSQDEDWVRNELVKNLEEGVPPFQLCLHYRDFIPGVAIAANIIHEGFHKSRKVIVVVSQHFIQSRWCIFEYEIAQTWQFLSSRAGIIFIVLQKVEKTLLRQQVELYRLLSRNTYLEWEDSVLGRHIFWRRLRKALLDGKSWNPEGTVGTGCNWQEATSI
T2 sequence (Q99836 whole entry): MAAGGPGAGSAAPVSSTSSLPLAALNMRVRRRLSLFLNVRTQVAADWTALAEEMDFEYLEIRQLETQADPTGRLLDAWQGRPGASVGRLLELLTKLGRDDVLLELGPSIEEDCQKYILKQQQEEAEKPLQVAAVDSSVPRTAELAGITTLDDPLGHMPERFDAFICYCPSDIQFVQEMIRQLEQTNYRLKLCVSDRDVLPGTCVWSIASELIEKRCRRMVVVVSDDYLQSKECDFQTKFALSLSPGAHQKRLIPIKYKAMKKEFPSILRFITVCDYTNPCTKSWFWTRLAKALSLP

- binding result [1]: binds
B1: TIP1 (Toll-like receptor inhibitory peptide 1) (peptide)
peptide: RQIKIWFQNRRMKWKKSHCRVLLI

- binding result [2]: binds
- binding result [3]: binds
B2: TIP1-FITC (peptide)
peptide: {FITC′}-RQIKIWFQNRRMKWKKSHCRVLLI
notes: used for confocal microscopy; also called TIP1 (TIP1-FITC)

Reference: patent publication US20200140504A1 (GENESEN, published 2020)
